Here are results for ten substances from US20090104149A1.

The target in this experiment is human recombinant cyclophilin (human) (UniProt P62937). Put plainly: competitive ELISA, human recombinant cyclophilin on coated BSA-cyclosporin A; reference cyclosporin A.
Sequence of human recombinant cyclophilin (human) (P62937 whole entry): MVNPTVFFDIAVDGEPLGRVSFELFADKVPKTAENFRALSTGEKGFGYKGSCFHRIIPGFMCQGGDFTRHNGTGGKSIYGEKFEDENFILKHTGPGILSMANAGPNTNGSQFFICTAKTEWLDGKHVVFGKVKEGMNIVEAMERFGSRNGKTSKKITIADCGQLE
Consider “[8′-hydroxy-MeBmt]^5-Ciclosporin (peptide)”, for which the Binding Ratio (BR), log10 of IC50 of test compound over IC50 of cyclosporin A came out at 0.35 log10 ratio.
Regarding [Ethyl-Val]^4-Ciclosporin (peptide), the Binding Ratio (BR), log10 of IC50 of test compound over IC50 of cyclosporin A stood at 0 log10 ratio.
Take [Ethyl-lle]^4-Ciclosporin (peptide): the Binding Ratio (BR), log10 of IC50 of test compound over IC50 of cyclosporin A is 0.1 log10 ratio.
As for [MeAla]^6-Ciclosporin (peptide), the Binding Ratio (BR), log10 of IC50 of test compound over IC50 of cyclosporin A is -0.4 log10 ratio.
Take [MeVal]^4-Ciclosporin (peptide): the Binding Ratio (BR), log10 of IC50 of test compound over IC50 of cyclosporin A turned out to be 0.1 log10 ratio.
Take [MeVal]^5-Ciclosporin (peptide): the Binding Ratio (BR), log10 of IC50 of test compound over IC50 of cyclosporin A stood at 0.4 log10 ratio.
For the substance [Melle]^4-Ciclosporin (peptide), the Binding Ratio (BR), log10 of IC50 of test compound over IC50 of cyclosporin A was -0.2 log10 ratio.
For “[dihydro-MeBmt]^1-[γ-hydroxy-MeLeu]^4-Ciclosporin (peptide)” the value was 0.1 log10 ratio.
Take “[γ-hydroxy-MeLeu]^4-Ciclosporin (peptide)”: the Binding Ratio (BR), log10 of IC50 of test compound over IC50 of cyclosporin A came to 0.4 log10 ratio.
Consider “[γ-hydroxy-MeLeu]^9-Ciclosporin (peptide)”, for which the Binding Ratio (BR), log10 of IC50 of test compound over IC50 of cyclosporin A came out at 0.15 log10 ratio.
